Reference: US20180305432A1

Target: self-lipid accumulated in leukemia cells peptide on CD1c (human)
Experiment: mLPA titration on K562-CD1c cells; CD69 on transduced Jurkat 76 b2m- cells (FIG. 5B); highest of the three TCRs titrated; full-length, on cells
Details: chains Valpha:Vbeta

B1: TCR DN4.99 (protein)
chain 1: AQTVTQSQPEMSVQEAETVTLSCTYDTSESDYYLFWYKQPPSRQMILVIRQEAYKQQNATENRFSVNFQKAAKSFSLKISDSQLGDAAMYFCAYRSPLNTGTASKLTFGTGTRLQVTL
chain 2: DVKVTQSSRYLVKRTGEKVFLECVQDMDHENMFWYRQDPGLGLRLIYFSYDVKMKEKGDIPEGYSVSREKKERFSLILESASTNQTSMYLCASSPWVSSYEQYFGPGTRLTVT
B1 gave an EC50 of peptide of 100 µg/mL.
